Assay results published in the supplement of paper PMC10065799, “High-throughput profiling of sequence recognition by tyrosine kinases and SH2 domains using bacterial peptide display” (eLife, 2023).

Legend:
[1] = test system: Fer (mouse); assay: phosphorylation enrichment, bacterial display (enrichment ratio); higher = better substrate or ligand; peptides without Tyr show the background
[2] = target: EPHB1 (UniProt P54762); assay: as above
[3] = target: FGFR1 (UniProt P11362); assay: as above
[4] = target: FGFR3 (UniProt P22607); assay: as above
[5] = target: Hck (UniProt P08631); assay: as above
Chain of Hck (P08631 whole entry, looked up): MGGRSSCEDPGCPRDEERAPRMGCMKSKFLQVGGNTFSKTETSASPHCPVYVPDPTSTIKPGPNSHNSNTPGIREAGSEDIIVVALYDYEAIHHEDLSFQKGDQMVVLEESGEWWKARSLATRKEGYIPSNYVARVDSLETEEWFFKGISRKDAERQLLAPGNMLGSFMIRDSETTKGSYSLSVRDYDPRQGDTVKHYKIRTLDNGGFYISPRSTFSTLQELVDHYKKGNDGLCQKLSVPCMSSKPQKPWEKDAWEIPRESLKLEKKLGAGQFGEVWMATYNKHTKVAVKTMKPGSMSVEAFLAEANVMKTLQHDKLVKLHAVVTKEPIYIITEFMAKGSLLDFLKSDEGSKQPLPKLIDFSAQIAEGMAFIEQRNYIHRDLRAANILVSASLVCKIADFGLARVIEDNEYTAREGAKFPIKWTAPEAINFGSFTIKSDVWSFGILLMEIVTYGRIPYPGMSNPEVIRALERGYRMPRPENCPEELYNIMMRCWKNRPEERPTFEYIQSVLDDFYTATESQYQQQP

[6] = target: Fyn (UniProt P06241); assay: as above
Chain of Fyn (P06241 whole entry, looked up): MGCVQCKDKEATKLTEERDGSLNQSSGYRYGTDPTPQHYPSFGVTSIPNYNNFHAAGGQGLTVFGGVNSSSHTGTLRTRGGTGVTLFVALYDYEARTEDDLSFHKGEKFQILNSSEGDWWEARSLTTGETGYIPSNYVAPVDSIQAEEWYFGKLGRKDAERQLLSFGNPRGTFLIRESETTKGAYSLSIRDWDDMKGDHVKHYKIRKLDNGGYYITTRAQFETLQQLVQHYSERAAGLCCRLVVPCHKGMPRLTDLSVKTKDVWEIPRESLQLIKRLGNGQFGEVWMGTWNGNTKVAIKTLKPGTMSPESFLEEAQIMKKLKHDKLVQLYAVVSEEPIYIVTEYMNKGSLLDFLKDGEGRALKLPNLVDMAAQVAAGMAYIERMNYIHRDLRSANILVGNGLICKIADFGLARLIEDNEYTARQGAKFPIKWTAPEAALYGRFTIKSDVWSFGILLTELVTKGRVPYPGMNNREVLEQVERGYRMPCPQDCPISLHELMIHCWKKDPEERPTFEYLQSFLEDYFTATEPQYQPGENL

[7] = test system: AncSZ; assay: as above
[8] = test system: c-Abl (mouse); assay: as above
[9] = target: MERTK (UniProt Q12866); assay: as above
Chain of MERTK (Q12866 whole entry, looked up): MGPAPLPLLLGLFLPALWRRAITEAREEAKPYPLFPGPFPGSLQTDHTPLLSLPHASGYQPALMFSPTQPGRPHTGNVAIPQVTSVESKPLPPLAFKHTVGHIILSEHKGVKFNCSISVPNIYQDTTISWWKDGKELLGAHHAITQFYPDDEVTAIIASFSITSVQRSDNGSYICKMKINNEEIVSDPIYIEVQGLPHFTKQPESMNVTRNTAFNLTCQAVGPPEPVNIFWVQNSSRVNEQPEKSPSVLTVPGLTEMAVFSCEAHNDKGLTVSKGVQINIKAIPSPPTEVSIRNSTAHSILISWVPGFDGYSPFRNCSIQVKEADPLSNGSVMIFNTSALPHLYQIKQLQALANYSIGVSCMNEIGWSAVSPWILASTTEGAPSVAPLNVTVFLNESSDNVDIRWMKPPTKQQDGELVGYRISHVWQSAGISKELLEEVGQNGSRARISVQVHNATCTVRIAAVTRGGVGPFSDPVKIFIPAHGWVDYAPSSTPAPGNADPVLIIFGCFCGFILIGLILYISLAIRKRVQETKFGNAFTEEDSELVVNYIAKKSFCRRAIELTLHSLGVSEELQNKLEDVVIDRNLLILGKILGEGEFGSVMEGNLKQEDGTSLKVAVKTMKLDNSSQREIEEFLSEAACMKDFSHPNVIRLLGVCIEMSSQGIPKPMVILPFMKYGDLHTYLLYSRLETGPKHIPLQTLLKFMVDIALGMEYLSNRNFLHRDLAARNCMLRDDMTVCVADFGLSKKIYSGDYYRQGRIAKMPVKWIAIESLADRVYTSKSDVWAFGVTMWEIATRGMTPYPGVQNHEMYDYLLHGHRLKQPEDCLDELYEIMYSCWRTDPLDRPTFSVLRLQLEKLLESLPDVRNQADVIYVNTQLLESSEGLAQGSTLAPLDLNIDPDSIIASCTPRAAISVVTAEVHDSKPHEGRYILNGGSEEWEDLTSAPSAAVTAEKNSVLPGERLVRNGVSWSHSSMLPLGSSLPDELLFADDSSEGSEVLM

[10] = test system: c-Src; assay: as above
[11] = target: Jak2 (UniProt O60674); assay: as above
Chain of Jak2 (O60674 whole entry, looked up): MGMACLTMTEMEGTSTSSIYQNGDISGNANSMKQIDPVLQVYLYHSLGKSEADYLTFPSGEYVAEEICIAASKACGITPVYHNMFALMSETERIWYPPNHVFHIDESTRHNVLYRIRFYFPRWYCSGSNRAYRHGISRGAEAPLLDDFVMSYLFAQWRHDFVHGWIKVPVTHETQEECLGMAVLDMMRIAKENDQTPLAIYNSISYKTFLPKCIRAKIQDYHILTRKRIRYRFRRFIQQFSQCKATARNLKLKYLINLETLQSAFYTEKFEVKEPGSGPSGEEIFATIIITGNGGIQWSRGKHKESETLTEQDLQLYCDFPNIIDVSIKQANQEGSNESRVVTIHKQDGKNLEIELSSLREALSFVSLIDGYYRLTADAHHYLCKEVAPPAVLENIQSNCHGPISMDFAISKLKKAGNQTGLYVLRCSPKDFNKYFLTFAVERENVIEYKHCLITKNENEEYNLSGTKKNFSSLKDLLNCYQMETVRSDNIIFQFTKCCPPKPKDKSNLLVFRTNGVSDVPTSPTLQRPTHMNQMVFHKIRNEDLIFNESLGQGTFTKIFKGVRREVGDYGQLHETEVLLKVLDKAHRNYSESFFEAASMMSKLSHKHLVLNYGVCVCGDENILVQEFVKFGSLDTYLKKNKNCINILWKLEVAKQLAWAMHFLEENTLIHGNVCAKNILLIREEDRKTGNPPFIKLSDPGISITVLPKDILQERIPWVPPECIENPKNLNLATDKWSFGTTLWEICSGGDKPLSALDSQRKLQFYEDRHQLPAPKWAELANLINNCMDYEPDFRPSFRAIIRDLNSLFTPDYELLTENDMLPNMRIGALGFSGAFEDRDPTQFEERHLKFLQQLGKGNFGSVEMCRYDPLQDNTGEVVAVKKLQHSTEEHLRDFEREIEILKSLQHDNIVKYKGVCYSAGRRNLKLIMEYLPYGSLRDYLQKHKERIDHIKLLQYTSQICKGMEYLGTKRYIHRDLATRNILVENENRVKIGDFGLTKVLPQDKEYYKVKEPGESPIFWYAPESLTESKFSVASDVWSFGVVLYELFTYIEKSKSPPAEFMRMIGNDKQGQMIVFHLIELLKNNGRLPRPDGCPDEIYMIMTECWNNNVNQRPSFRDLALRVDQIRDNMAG

[12] = target: Fes (UniProt P07332); assay: as above
[13] = target: EPHB2 (UniProt P29323); assay: as above
[14] = target: c-Src SH2; assay: SH2 binding enrichment of the phosphorylated peptide, bacterial display (enrichment ratio); higher = better substrate or ligand; peptides without Tyr show the background
[15] = target: Grb2 SH2 (UniProt P62993); assay: as above
[16] = target: SHP2-C SH2; assay: as above
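For SH2 binding enrichment of the phosphorylated peptide, bacterial display in this document: peptide library displayed on the E. coli surface as eCPX fusions, selected cells deep-sequenced, score is each peptide's frequency after selection divided by its frequency in the input.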
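For phosphorylation enrichment, bacterial display in this document: 11-residue human phosphosite peptides and single-mutation variants displayed on the E. coli surface, counted by deep sequencing, each peptide's frequency after selection divided by its frequency in the unselected input library; frequency after pTyr selection over input frequency; kinase dosed for 20-30% of maximal phosphorylation in three min.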

Chain of FGFR1 (P11362 whole entry, looked up): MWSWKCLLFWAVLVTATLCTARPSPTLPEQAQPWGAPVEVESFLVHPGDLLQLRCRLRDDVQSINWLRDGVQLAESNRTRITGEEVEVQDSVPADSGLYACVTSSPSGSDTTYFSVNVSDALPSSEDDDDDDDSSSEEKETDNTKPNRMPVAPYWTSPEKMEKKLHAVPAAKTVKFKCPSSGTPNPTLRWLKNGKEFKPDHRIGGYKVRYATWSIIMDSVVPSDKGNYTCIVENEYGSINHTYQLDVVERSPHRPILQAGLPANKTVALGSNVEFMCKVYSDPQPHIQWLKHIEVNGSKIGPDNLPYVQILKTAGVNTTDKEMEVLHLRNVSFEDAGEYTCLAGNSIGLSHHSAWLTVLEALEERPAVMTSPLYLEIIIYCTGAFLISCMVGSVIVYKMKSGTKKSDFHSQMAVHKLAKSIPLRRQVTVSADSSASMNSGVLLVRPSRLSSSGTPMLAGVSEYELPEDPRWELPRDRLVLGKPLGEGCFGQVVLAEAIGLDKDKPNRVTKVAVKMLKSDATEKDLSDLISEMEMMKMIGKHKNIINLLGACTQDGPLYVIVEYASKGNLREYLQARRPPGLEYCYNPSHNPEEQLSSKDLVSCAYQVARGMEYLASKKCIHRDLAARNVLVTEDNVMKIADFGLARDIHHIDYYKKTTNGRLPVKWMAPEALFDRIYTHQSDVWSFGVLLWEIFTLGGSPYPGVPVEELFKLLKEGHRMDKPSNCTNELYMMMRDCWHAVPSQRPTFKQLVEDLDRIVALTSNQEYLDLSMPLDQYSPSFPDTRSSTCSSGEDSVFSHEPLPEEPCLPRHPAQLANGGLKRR
Chain of EPHB1 (P54762 whole entry, looked up): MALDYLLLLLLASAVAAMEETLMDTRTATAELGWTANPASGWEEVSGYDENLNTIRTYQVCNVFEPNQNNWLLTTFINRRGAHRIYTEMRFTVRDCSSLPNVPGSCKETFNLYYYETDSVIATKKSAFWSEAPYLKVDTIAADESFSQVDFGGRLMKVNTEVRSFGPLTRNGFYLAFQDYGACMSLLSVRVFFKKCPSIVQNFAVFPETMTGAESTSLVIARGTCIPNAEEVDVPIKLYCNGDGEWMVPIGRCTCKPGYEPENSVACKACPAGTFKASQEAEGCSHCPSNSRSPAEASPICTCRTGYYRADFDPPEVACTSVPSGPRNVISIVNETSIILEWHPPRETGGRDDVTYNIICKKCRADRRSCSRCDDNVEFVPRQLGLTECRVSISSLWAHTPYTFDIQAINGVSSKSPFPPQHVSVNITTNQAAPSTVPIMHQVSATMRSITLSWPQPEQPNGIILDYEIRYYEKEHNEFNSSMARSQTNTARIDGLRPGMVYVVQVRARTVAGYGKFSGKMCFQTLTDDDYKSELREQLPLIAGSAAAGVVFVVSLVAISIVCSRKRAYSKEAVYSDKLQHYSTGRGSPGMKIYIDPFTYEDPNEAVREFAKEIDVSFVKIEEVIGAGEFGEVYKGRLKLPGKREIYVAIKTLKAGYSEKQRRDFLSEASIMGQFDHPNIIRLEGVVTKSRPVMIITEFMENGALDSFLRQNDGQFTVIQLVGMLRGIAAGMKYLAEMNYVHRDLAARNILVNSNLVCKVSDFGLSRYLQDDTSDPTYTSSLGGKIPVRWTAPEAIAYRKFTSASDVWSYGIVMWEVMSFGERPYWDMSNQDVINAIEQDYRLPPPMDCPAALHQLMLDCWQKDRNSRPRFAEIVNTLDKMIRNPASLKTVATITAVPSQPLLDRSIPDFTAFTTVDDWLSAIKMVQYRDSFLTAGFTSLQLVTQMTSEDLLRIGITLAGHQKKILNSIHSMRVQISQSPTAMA

Row | Sequence | SH2 binding enrichment [14] | SH2 binding enrichment [15] | SH2 binding enrichment [16] | phosphorylation enrichment [1] | phosphorylation enrichment [2] | phosphorylation enrichment [3] | phosphorylation enrichment [4] | phosphorylation enrichment [5] | phosphorylation enrichment [6] | phosphorylation enrichment [7] | phosphorylation enrichment [8] | phosphorylation enrichment [9] | phosphorylation enrichment [10] | phosphorylation enrichment [11] | phosphorylation enrichment [12] | phosphorylation enrichment [13]
1 | EAIAKYDFKAT [GRB2_Y7] | 0.465 | 0.775 | 0.679 | 0.327 | 0.488 | 0.587 | 0.528 | 0.387 | 0.408 | 0.658 | 0.618 | 0.396 | 0.393 | 0.597 | 0.827 | 0.412
2 | EARRVYGDIIF [ALDH5A1_Y175_H180Y_YF] | 0.485 | 0.818 | 0.689 | 0.493 | 0.4 | 0.505 | 0.578 | 0.509 | 0.635 | 0.683 | 0.637 | 0.536 | 0.654 | 0.719 | 0.897 | 0.448
3 | EASGIYVKSII [PATJ_Y396] | 0.466 | 0.994 | 0.674 | 0.492 | 0.543 | 0.523 | 0.659 | 0.52 | 0.429 | 1.02 | 0.677 | 0.438 | 0.458 | 0.983 | 1.13 | 0.535
4 | EATKGYLDDPT [G6PD_Y322] | 0.567 | 0.785 | 0.525 | 0.553 | 0.655 | 0.412 | 0.593 | 0.421 | 0.424 | 0.859 | 0.774 | 0.455 | 0.392 | 0.949 | 1.03 | 0.473
5 | EDEGLYTVRVP [MYOM3_Y343_M344T] | 0.488 | 0.83 | 0.617 | 1.38 | 0.766 | 0.633 | 0.939 | 4.08 | 3.52 | 1.64 | 0.737 | 1.84 | 3.4 | 1.04 | 1.24 | 0.692
6 | EFAAGYNVKFD [GPX4_Y123] | 0.503 | 0.707 | 0.727 | 0.483 | 0.425 | 0.697 | 0.544 | 0.449 | 0.465 | 0.739 | 0.389 | 0.461 | 0.419 | 0.502 | 0.862 | 0.397
7 | EFHRLYEEFTR [PIK3R1_Y467_D464H_YF] | 0.694 | 0.86 | 0.782 | 3.87 | 5.22 | 0.573 | 0.579 | 7.49 | 7.21 | 0.97 | 0.709 | 4.42 | 5.59 | 0.714 | 0.941 | 2.58
8 | EFISEFCGEII [EZH2_Y641_Y641F] | 0.743 | 1.24 | 0.895 | 0.591 | 0.566 | 0.574 | 0.885 | 0.518 | 0.507 | 1.52 | 1.22 | 0.638 | 0.618 | 1.44 | 1.42 | 0.719
9 | EIEFLYNENTV [IARS1_Y680] | 0.615 | 0.682 | 0.619 | 0.632 | 0.641 | 0.645 | 0.724 | 0.622 | 0.479 | 1.35 | 0.927 | 0.515 | 0.557 | 1.26 | 1.26 | 0.584
10 | EIIPFYGMSTY [FNDC3B_Y175] | 4.96 | 0.742 | 0.539 | 0.88 | 0.685 | 0.454 | 0.709 | 1.1 | 0.864 | 0.751 | 0.818 | 0.687 | 0.902 | 0.768 | 0.875 | 0.681
11 | EIVHRYVELLD [AP1S3_Y87] | 21.6 | 0.91 | 1.11 | 0.499 | 0.483 | 0.41 | 0.673 | 0.504 | 0.464 | 0.892 | 0.744 | 0.506 | 0.498 | 0.922 | 1.06 | 0.53
12 | EKEKEYMLPLD [DNM2_Y563_K562E] | 0.581 | 0.834 | 0.729 | 0.388 | 0.48 | 0.443 | 0.604 | 0.469 | 0.421 | 1.1 | 0.479 | 0.442 | 0.358 | 0.743 | 0.959 | 0.414
13 | EKKDLYKAGEQ [CFH_Y1008_V1007L] | 0.46 | 0.794 | 0.655 | 0.431 | 0.382 | 0.356 | 0.647 | 0.374 | 0.43 | 0.705 | 0.62 | 0.374 | 0.369 | 0.606 | 0.799 | 0.432
14 | EKKKFYDAKIE [CASP5_Y104_T106A_YF] | 0.453 | 0.686 | 0.783 | 0.435 | 0.4 | 0.431 | 0.534 | 0.468 | 0.369 | 0.751 | 0.718 | 0.349 | 0.466 | 1.05 | 0.803 | 0.409
15 | EKRDAYVSCLN [GSR_Y150_R153C] | 0.878 | 1.19 | 0.934 | 0.437 | 0.568 | 0.563 | 0.702 | 0.53 | 0.481 | 0.925 | 0.776 | 0.472 | 0.514 | 0.726 | 1.1 | 0.472
16 | ELTTCYRKKCS [CCBE1_Y70_C75S] | 1.04 | 1.25 | 0.741 | 0.362 | 0.431 | 0.536 | 0.501 | 0.458 | 0.454 | 0.764 | 0.64 | 0.467 | 0.444 | 1.12 | 0.816 | 0.565
17 | ENGPFYASFPP [GDAP2_Y488_T489A_YF] | 0.744 | 0.852 | 0.523 | 7.77 | 9.38 | 3.05 | 2.07 | 8.77 | 9.94 | 0.819 | 14.9 | 11.5 | 7.57 | 0.951 | 0.858 | 10.4

Continued, in another order:

Row | SH2 binding enrichment [14] | SH2 binding enrichment [15] | SH2 binding enrichment [16] | Sequence | phosphorylation enrichment [1] | phosphorylation enrichment [2] | phosphorylation enrichment [3] | phosphorylation enrichment [4] | phosphorylation enrichment [5] | phosphorylation enrichment [6] | phosphorylation enrichment [7] | phosphorylation enrichment [8] | phosphorylation enrichment [9] | phosphorylation enrichment [10] | phosphorylation enrichment [11] | phosphorylation enrichment [12] | phosphorylation enrichment [13]
18 | 0.554 | 0.956 | 0.594 | DTQNSYRCATS [TSC1_Y304_G305R] | 0.392 | 0.389 | 0.565 | 0.486 | 0.42 | 0.538 | 0.771 | 0.593 | 0.466 | 0.449 | 0.612 | 0.726 | 0.501
19 | 0.644 | 1.06 | 0.95 | DVQNAYDSNHC [ZFYVE16_Y36] | 0.555 | 0.505 | 0.487 | 0.719 | 0.533 | 0.495 | 0.999 | 0.723 | 0.574 | 0.495 | 0.681 | 0.949 | 0.495
20 | 21.4 | 0.93 | 0.772 | EADRKYEEVAG [TPM3_Y163_R168G] | 0.464 | 0.655 | 0.6 | 0.685 | 0.523 | 0.508 | 1.12 | 0.613 | 0.48 | 0.452 | 0.998 | 1.07 | 0.578
21 | 0.436 | 0.746 | 0.623 | ECKLFYSRKEG [PTPN11_Y263_L262F] | 0.445 | 0.502 | 0.457 | 0.602 | 0.626 | 0.401 | 1.08 | 0.768 | 0.515 | 0.465 | 0.685 | 1 | 0.451
22 | 0.435 | 0.797 | 0.616 | EDKFMYLEFPQ [PTEN_Y240_F241L] | 0.673 | 0.879 | 2.44 | 2.26 | 1.01 | 0.889 | 1.71 | 1.14 | 0.664 | 1.2 | 1.38 | 1.34 | 0.756
23 | 0.514 | 0.941 | 0.831 | EDKSIYRRGAC [PRKCI_Y125_R130C] | 0.35 | 0.34 | 0.42 | 0.495 | 0.405 | 0.375 | 0.496 | 0.474 | 0.406 | 0.315 | 0.532 | 0.705 | 0.429
24 | 0.669 | 0.947 | 1.39 | EEALYYLTRVE [SET_Y119_H118Y] | 5.28 | 1.85 | 9.54 | 9.52 | 4.07 | 4.26 | 2.55 | 1.53 | 6.68 | 4.59 | 2.69 | 1.43 | 1.91
25 | 1.13 | 0.691 | 1.7 | EELLHYAIVTP [POC5_Y37] | 6.7 | 3.27 | 1.33 | 1.1 | 1.23 | 0.723 | 1.48 | 1.56 | 5.76 | 1.09 | 1.04 | 1.24 | 1.49
26 | 0.559 | 1.01 | 0.482 | EEQKKYYNATK [SCN5A_Y1494_M1498T] | 0.421 | 0.543 | 1.29 | 0.554 | 0.478 | 0.467 | 0.59 | 0.407 | 0.411 | 0.363 | 0.476 | 0.673 | 0.521
27 | 1.45 | 20.6 | 1.22 | EERNTYVNTTL [TEK_Y1102_K1100N] | 0.404 | 0.955 | 0.515 | 0.454 | 0.53 | 0.446 | 0.694 | 0.638 | 0.675 | 0.43 | 0.551 | 0.83 | 0.531
28 | 0.596 | 0.912 | 0.86 | EFRFIYMAVQH [PTPN11_Y515_Q510E_YF] | 1.01 | 0.881 | 0.555 | 0.864 | 1.63 | 1.42 | 1.31 | 1.16 | 0.519 | 2.05 | 1.18 | 1.35 | 0.737
29 | 0.316 | 0.665 | 0.519 | EFSNQYKATIG [RAB7A_Y37_K32E] | 0.442 | 0.411 | 0.405 | 0.474 | 0.446 | 0.339 | 0.455 | 0.524 | 0.342 | 0.311 | 0.52 | 0.559 | 0.413
30 | 1.02 | 6.49 | 0.728 | EHLNRYINDTF [TTLL10_Y446_S448N] | 0.53 | 0.567 | 0.525 | 0.654 | 0.49 | 0.467 | 0.853 | 0.751 | 0.46 | 0.517 | 1.08 | 1.08 | 0.608
31 | 0.417 | 0.7 | 0.567 | EILLSDLRTGF [TGM1_Y365_Y365D_YF] | 0.576 | 0.42 | 0.487 | 0.56 | 0.478 | 0.464 | 0.779 | 0.631 | 0.378 | 0.418 | 0.69 | 0.891 | 0.477
32 | 0.484 | 1.03 | 0.726 | ELCSEYRKSRK [SPINK5_Y440] | 0.457 | 0.425 | 0.429 | 0.394 | 0.412 | 0.378 | 0.562 | 0.555 | 0.443 | 0.375 | 0.474 | 0.803 | 0.489
33 | 0.582 | 0.802 | 0.516 | ELQDDYEDTME [SLC4A1_Y8_M11T] | 0.805 | 0.942 | 0.649 | 0.972 | 0.649 | 0.77 | 1.47 | 1 | 0.526 | 0.603 | 1.47 | 1.39 | 0.836
